How the values were obtained:
CD4 receptor on cells = molecular target: T1, CD4 receptor on cells (human, UniProt P01730 26-458); experiment: cell binding assay, protein coated, A3.01, A2.01 and Tzmbl cells added, CellTiterGlo detection
T1 construct: whole, on cells; also called CD4 receptor on T cells; CD4+ T cells (A3.01, A3R5, J-Lat 10.6, human PBMC)

[1] = molecular target: T2, soluble human CD4 receptor with full-length extracellular domain (amino acids 1-370) (human, UniProt P01730 26-396); experiment: ELISA, 0.1 ug protein coated per well, soluble CD4 added, detected with anti-CD4 antibody Sim.2
T2 construct: extracellular domain; also called soluble CD4; recombinant soluble CD4 (NIH AIDS Reagent program, 4615)

B1: Hoc (highly antigenic outer capsid protein), N-terminal hexa-histidine tag (other)
chain: HHHHHHMTFTVDITPKTPTGVIDETKQFTATPSGQTGGGTITYAWSVDNVPQDGAEATFSYVLKGPAGQKTIKVVATNTLSEGGPETAEATTTITVKNKTQTTTLAVTPASPAAGVIGTPVQFTAALASQPDGASATYQWYVDDSQVGGETNSTFSYTPTTSGVKRIKCVAQVTATDYDALSVTSNEVSLTVNKKTMNPQVTLTPPSINVQQDASATFTANVTGAPEEAQITYSWKKDSSPVEGSTNVYTVDTSSVGSQTIEVTATVTAADYNPVTVTKTGNVTVTAKVAPEPEGELPYVHPLPHRSSAYIWCGWWVMDEIQKMTEEGKDWKTDDPDSKYYLHRYTLQKMMKDYPEVDVQESRNGYIIHKTALETGIIYTYP
notes: Negative control
binding result (CD4 receptor on cells): no binding (tested: 15 pmoles per well) | binding result [1]: no binding
